Earlier results on two substances are cited in article PMC6289583.

For one series, the target named is ICAM-2 (Homo sapiens) (UniProt P13598).
In a further series the target is EBP50 (Homo sapiens) (UniProt O14745). The series can be described thus: SPR. In general terms: Surface plasmon resonance follows binding to a sensor surface in real time, without labels.
The target of the next series is Moesin (UniProt P26038).
Sequence of Moesin (P26038 2-577): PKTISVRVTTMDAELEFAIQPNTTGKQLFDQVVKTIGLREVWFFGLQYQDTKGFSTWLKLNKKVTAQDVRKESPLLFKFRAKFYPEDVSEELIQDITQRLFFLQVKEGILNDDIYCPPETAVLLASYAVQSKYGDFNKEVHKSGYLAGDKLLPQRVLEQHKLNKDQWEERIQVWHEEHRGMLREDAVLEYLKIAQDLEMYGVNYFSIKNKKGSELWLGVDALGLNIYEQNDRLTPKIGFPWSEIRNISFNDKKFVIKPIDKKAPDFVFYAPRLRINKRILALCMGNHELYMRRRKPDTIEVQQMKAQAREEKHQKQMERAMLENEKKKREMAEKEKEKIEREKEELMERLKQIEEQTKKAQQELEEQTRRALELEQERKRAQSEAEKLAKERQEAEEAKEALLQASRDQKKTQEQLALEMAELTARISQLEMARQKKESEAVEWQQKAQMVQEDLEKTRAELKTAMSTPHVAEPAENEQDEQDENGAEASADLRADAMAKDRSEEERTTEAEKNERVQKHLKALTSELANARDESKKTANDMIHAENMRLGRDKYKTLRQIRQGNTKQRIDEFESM

Sequence of Ezrin (P15311 whole entry): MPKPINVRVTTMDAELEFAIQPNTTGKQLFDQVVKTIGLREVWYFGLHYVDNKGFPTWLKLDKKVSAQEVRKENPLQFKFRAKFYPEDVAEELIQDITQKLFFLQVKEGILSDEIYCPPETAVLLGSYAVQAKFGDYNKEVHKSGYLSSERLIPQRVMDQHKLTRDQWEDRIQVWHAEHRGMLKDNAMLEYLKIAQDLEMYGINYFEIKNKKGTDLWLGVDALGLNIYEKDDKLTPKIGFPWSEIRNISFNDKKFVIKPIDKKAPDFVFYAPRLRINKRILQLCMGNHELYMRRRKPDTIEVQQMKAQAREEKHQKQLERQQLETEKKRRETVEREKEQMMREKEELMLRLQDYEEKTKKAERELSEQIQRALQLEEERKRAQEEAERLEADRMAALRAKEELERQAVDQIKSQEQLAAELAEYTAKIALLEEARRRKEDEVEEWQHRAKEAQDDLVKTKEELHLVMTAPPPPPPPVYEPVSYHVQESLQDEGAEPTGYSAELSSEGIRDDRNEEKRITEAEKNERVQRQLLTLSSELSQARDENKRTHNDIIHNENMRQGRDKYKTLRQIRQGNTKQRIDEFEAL
Sequence of EBP50 (Homo sapiens) (O14745 2-358): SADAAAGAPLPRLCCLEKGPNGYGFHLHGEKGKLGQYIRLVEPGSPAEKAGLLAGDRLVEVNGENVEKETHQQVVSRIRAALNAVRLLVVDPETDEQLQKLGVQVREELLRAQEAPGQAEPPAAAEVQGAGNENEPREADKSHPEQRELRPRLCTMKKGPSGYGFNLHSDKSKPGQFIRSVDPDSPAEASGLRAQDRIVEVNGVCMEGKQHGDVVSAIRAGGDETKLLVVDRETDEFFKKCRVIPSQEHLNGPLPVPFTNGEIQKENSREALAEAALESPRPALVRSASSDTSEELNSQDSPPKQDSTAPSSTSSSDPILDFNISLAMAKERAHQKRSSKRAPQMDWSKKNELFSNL
Sequence of ICAM-2 (Homo sapiens) (P13598 25-275): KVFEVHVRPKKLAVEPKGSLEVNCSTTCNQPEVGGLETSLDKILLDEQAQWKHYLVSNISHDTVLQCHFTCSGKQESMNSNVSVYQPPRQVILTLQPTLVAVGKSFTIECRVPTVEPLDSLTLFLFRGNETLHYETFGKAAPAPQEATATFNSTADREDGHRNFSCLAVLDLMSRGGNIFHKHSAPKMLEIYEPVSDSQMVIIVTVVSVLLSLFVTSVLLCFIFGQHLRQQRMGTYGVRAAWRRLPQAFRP
Sequence of CD44 cytoplasmic domain (P16070 671-742): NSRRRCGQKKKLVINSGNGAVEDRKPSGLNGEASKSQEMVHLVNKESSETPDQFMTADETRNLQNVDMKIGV

A word on the Kd: it is the free concentration of one partner at which half of the binding sites on the other are occupied at equilibrium, for simple one-to-one binding. For the substance Ezrin (from UniProt P15311), the equilibrium dissociation constant (Kd) was 330 nM in the series with ICAM-2 (Homo sapiens) and 58 nM with EBP50 (Homo sapiens).

As to “CD44 cytoplasmic domain (from UniProt P16070)”, the Kd with Moesin was 9.3 nM.
